Source: PMC4546627, “Biophysical Characterization of Essential Phosphorylation at the Flexible C-Terminal Region of C-Raf with 14-3-3ζ Protein” (PLoS ONE, 2015)
Entries after “also recorded” stand apart in the source; their conditions may differ. Where a SMILES comes first, the peptide text is derived from it. Where no end group is shown, it is not given here. [ ]: non-standard residue; d: D form. pS = N[C@@H](COP(=O)(O)O)C(=O)O

Experiments:
[1] = molecular target: C-Raf pS233/pS259 peptide (Homo sapiens) (UniProt P04049); details: cited from earlier work
[2] = molecular target: C-Raf pS233 peptide (Homo sapiens) (UniProt P04049); details: cited from earlier work
[3] = molecular target: C-Raf pS259 peptide (Homo sapiens) (UniProt P04049); details: cited from earlier work
human 14-3-3ζ protein [4] = molecular target: T1, human 14-3-3ζ protein (Homo sapiens, UniProt P63104); assay: Isothermal titration calorimetry (ITC) of peptide binding to 14-3-3ζ
T1 construct: hexa-histidine (His6, from pQE30 vector) (N); made in house; host or cells: E. coli M15
T1 sequence (P63104 1-245): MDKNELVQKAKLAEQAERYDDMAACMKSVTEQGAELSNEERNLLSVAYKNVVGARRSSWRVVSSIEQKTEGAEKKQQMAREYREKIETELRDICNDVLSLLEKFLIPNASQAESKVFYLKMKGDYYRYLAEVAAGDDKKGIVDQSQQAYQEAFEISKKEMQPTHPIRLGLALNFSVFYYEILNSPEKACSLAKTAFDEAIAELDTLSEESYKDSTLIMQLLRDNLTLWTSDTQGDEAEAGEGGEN
Text: Human 14-3-3ζ full length sequence was PCR amplified using pcDNA3 14-3-3ζ as a template with forward primer (5´-[…]-3´) and reverse primer (5´-[…]-3´). The PCR amplified product was digested with BamH1 and Pst1 and cloned into pQE30 vector. This vector contains N-terminal hexa- histidine tag suitable for affinity purification. The cloned fragment was confirmed by automated DNA sequencer, Applied Biosystem 3130×I 96 capillary DNA Analyzer.
E. coli M15 cells were transformed with this construct and grown at 37°C in LB medium containing ampicillin and kanamycin. The cells were grown till 0.6 (O.D.600nm) and the expression of the protein was induced with 0.5 mM IPTG for 3 hours. The cells were harvested and stored at -70°C. The cells were subsequently resuspended in lysis buffer (10 mM NaH2PO4, 100 mM NaCl, pH7.0, 1 mM PMSF (Sigma, St. Louis, MO), 1X Halt Protease inhibitor cocktail (ThermoFisher Scientific, Waltham, MA) and lysed by passing through the French press at 20,000 psi. Cell lysate was centrifuged at 20,000×g for 15 minutes at 4°C. The supernatant was collected and again centrifuged at 100,000×g for 1 hour. Cell homogenate was applied onto TALON affinity resin (Clontech, Mountain View, CA) pre-equilibrated with lysis buffer. Resin was washed with five volumes of lysis buffer containing 20 mM imidazole. Bound protein was eluted with 150 mM imidazole containing lysis buffer. Imidazole was then removed by dialysis; the buffer was exchanged with 10 mM NaH2PO4, 100 mM NaCl, pH 6.1 and the protein was concentrated in sucrose bed. Commercially synthesized and HPLC-purified (> 95%) KH16p and KH16 peptides were purchased from GL Biochem (Shanghai, China) and used as received.
ITC technique was employed to study thermodynamics of KH16p and KH16 peptides interactions with 14-3-3ζ protein with the help of VP-ITC micro-calorimeter in high feedback mode. The peptides were dissolved in the same dialysis buffer of 14-3-3ζ protein (i.e., 10 mM Na2HPO4 buffer containing 100 mM NaCl, pH 6.1). Sample cell with 50 μM 14-3-3ζ protein was titrated against 1 mM peptide in a syringe with 300 rpm stirring speed with an initial delay of 60 sec. The cell temperature was kept at 298 K and 10 μcal/s of reference power as applied to maintain a flat baseline. A total of 17 injections of 1 mM KH16p/KH16 were performed, where the initial injection was of 0.4 μl and the final was 2.0 μl, while the remaining 15 injections were 2.5 μl each. Each injection was over a period of 0.8 sec with a spacing of 150 sec and filter time of 5 sec. An equivalent control experiment to subtract the heat of dilution of the peptides in buffer was performed (i.e., the same concentration of peptide was injected into the buffer solution keeping same experimental parameters). Results obtained were plotted using MicroCal Origin 7.0 software. In order to determine the thermodynamic parameters (i.e., association constant K A and enthalpy of reaction ΔH), the single-site binding model was used. Other thermodynamic parameters such as the free energy of binding (ΔG) and entropy (ΔS) were calculated using Eqs (2) and (3), respectively: ΔG=−RTlnKA (2) ΔG=ΔH−TΔS (3)

human 14-3-3ζ protein [5] = molecular target: T1, human 14-3-3ζ protein; assay: STD NMR with 14-3-3ζ; type: binding; details: 1 mM peptide, 2 μM 14-3-3ζ (500:1), D2O, 10 mM Na2HPO4, 100 mM NaCl, pH 6.1, 288 K
Procedure: Saturation transfer difference (STD) NMR experiments were carried out at 288 K using standard STD pulse sequences, with WATERGATE 3-9-19 water suppression method. Briefly, 1 mM of KH16p/KH16 peptide in 10 mM Na2HPO4 buffer (pH 6.1) with 100 mM NaCl was lyophilized and resuspended in an equal volume of D2O, and 2 μM 14-3-3ζ proteins was added to it. A train of 40 selective Gaussian-shaped pulses (49 ms each) with an interval period of 1 ms was used to saturate protein resonance for a total of 2 sec saturation time. During the STD NMR experiment, on- and off-resonance frequencies were set at -1 ppm and 40 ppm, respectively. Subtraction of off-resonance spectrum from the on-resonance spectra to yield signals appearing due to saturation transfer from protein to ligand was achieved using phase cycling. The one-dimensional STD spectra were acquired with 1024 scans with 16 dummy scans using a sweep width of 12 ppm. An exponential line broadening function of 3 Hz was applied to the spectral data before Fourier transformation. Similar STD experiments were performed on the peptide KH16p or KH16 in the absence of 14-3-3ζ protein as a control.

14-3-3ζ = molecular target: T2, 14-3-3ζ (Homo sapiens, UniProt P63104); assay: 31P NMR
T2 chain: T1 sequence (P63104 1-245)

14-3-3ζ (from UniProt P63104)
Kd [1]: 0.346 µM
Kd [2]: 171 µM
Kd [3]: 16.7 µM

CC[C@H](C)[C@H](NC(=O)[C@@H](N)CCCCN)C(=O)N[C@@H](CC(N)=O)C(=O)N[C@@H](CCCNC(=N)N)C(=O)N[C@@H](CO)C(=O)N[C@@H](C)C(=O)N[C@@H](COP(=O)(O)O)C(=O)N[C@@H](CCC(=O)O)C(=O)N1CCC[C@H]1C(=O)N[C@@H](CO)C(=O)N[C@@H](CC(C)C)C(=O)N[C@@H](Cc1c[nH]cn1)C(=O)N[C@@H](CCCNC(=N)N)C(=O)N[C@@H](C)C(=O)N[C@@H](C)C(=O)N[C@@H](Cc1c[nH]cn1)C(=O)O [KH16p] (H-KINRSA[pS]EPSLHRAAH-OH)
Kd (human 14-3-3ζ protein [4]): 17.3 µM

KH16: control peptide KH16 devoid of phosphorylation at S621 (C-Raf 615–630) (KINRSASEPSLHRAAH; UniProt P04049 615-630, looked up, fragment)
N (stoichiometry) (human 14-3-3ζ protein [4]; ITC, 50 μM 14-3-3ζ in cell, 1 mM peptide in syringe, 298 K, 10 mM Na2HPO4, 100 mM NaCl, pH 6.1, single-site binding model): 1.89 ± 1.45 × 10^4
T∆S (human 14-3-3ζ protein [4]; ITC, 298 K, pH 6.1): -411.24 kcal/mol
binding affinity (in words) (human 14-3-3ζ protein [4]; ITC, 298 K, pH 6.1): did not show any appreciable binding affinity; also recorded: relatively weak and the corresponding KD value is in the millimolar range
∆S (human 14-3-3ζ protein [4]; ITC, 298 K, pH 6.1, calculated from ΔG=ΔH−TΔS): -1.38 × 10^3 cal mol^-1 deg^-1
∆G (human 14-3-3ζ protein [4]; ITC, 298 K, pH 6.1, calculated from ΔG=−RTlnKA): -1.96 kcal/mol
STD NMR signals with 14-3-3ζ (in words) (human 14-3-3ζ protein [5]): did not show any peaks in both the aromatic and the aliphatic regions

B1: C-Raf KH16p phosphopeptide 615-630 (peptide)
chain: KINRSA[pS]EPSLHRAAH
Kd (14-3-3ζ): 17.7 µM
